From PMC9322661

Biological target: Taxol-stabilized microtubules (porcine brain tubulin) (porcine)
Assay: TIRF single-molecule motility assay

Chain of Taxol-stabilized microtubules (porcine brain tubulin) (porcine) (P02550 whole entry, chain 1 of 2): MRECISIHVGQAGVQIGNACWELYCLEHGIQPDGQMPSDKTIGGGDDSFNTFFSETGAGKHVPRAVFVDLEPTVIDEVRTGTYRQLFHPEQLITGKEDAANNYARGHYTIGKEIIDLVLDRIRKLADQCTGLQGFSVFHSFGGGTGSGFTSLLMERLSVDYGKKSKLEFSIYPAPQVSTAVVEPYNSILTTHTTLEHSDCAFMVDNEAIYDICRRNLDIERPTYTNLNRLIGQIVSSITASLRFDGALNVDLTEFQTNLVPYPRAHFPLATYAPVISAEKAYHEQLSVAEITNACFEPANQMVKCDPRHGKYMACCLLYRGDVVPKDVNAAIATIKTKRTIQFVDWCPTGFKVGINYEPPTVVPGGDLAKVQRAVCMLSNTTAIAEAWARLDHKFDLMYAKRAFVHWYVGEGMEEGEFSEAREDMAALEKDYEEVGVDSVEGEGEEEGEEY
Chain of Taxol-stabilized microtubules (porcine brain tubulin) (porcine) (P02554 whole entry, chain 2 of 2, further chain): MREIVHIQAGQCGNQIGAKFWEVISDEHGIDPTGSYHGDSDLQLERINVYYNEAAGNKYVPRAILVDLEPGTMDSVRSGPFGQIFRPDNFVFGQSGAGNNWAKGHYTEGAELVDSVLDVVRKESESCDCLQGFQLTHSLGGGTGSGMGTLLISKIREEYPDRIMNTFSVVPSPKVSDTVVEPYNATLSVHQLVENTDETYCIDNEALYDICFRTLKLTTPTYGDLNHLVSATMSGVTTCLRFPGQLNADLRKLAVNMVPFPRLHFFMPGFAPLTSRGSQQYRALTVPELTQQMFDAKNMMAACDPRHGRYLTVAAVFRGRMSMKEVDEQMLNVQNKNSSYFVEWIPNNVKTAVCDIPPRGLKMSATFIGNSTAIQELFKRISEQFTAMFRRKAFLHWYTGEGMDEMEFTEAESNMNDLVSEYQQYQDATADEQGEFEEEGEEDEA

landing rate (motors/μm/s/μM): 8.3
Substance: full-length KIF5A(∆exon27)::mSca (from UniProt Q12840 1-1032) (natural protein)
